Columns and labels:
[1] = target: T1, BMP9 (Homo sapiens, UniProt Q9UK05); experiment: A204 cell-based pGL3(CAGA)12 reporter gene assay, signaling by BMP9; conditions: for Inhibitory Potency of Homodimeric ActRIIB-Fc Constructs IC50 BMP9: Table 5, A204 cells, luciferase reporter, ND: not detectable over concentration range tested
T1 sequence (Q9UK05 320-429): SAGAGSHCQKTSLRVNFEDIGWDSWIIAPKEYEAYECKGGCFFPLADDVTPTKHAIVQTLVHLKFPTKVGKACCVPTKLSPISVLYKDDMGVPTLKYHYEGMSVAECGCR
Source text: (§1) To determine activity of variant ActRIIB-Fc polypeptides, an A204 cell-based assay was used to compare effects among variant ActRIIB-Fc polypeptides on signaling by activin A, activin B, GDF8, GDF11, BMP9, and BMP10, in comparison to ActRIIB-G1Fc. In brief, this assay uses a human A204 rhabdomyosarcoma cell line (ATCC®: HTB-82™) derived from muscle and the reporter vector pGL3(CAGA)12 (Dennler et al., 1998, EMBO 17: 3091-3100) as well as a Renilla reporter plasmid (pRLCMV) to control for transfection efficiency. The CAGA12 motif is present in TGF-β responsive genes (e.g., PAI-1 gene), so this vector is of general use for ligands that can signal through Smad2/3, including activin A. GDF11, and BMP9.
(§2) On day 1. A204 cells were transferred into one or more 48-well plates. On day 2, these cells were transfected with 10 μg pGL3(CAGA)12 or pGL3(CAGA)12(10 μg)+pRLCMV (1 pg) and Fugene. On day 3, ligands diluted in medium containing 0.1% BSA were preincubated with ActRIIB-Fc polypeptides for 1 hr before addition to cells. Approximately six hour later, the cells were rinsed with PBS and lysed. Cell lysates were analyzed in a luciferase assay to determine the extent of Smad activation.
(§3) This assay was used to screen variant ActRIIB-Fc polypeptides for inhibitory effects on cell signaling by activin A, activin B. GDF8, GDF11. BMP9, and BMP10. Potencies of homodimeric Fc fusion polypeptides incorporating amino acid substitutions in the human ActRIIB extracellular domain were compared with that of an Fc fusion polypeptide comprising unmodified human ActRIIB extracellular domain, ActRIIB-G1Fc. For some variants tested, it was not possible to calculate an accurate IC50, but signs of inhibition in the slope of the curves were detectable. For these variants, an estimate was included of the order of magnitude of the relative IC50, i.e. >10 nM or >100 nM instead of a definite number. Such data points are indicated by a (*) in Table 3 below. For some variants tested, there was no detectable inhibition in the slope of the curves over the concentration range tested, which is indicated by “ND” in Table 4.
as §1, with “A,” for “A, activin B, GDF8,”, “GDF11,” for “GDF11, BMP9,”, “and BMP9.” for “and BMP10, in comparison to ActRIIB-G1Fc.”, “(Dennler el” for “(Dennler et”, “activin A,” for “activin A.”
as §2, with “1, A-204” for “1. A204”, “μg)” for “pg)”
(§4) This assay was used to screen variant ActRIIB-Fc polypeptides for inhibitory effects on cell signaling by activin A, GDF11, and BMP9. Potencies of homodimeric Fc fusion polypeptides incorporating amino acid substitutions in the human ActRIIB extracellular domain were compared with that of an Fc fusion polypeptide comprising unmodified human ActRIIB extracellular domain.

[2] = target: T2, GDF11 (Homo sapiens, UniProt O95390); experiment: A204 cell-based pGL3(CAGA)12 reporter gene assay, signaling by GDF11; conditions: for Inhibitory Potency of Homodimeric ActRIIB-Fc Constructs IC50 GDF11: Table 5, A204 cells, luciferase reporter, ND: not detectable over concentration range tested
T2 sequence (O95390 299-407): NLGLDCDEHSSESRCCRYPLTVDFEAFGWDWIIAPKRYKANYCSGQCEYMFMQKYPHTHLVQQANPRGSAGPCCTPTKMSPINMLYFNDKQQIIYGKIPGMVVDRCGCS
Source text: as §1, §2, §3
as §1, with “A,” for “A, activin B, GDF8,”, “GDF11,” for “GDF11, BMP9,”, “and BMP9.” for “and BMP10, in comparison to ActRIIB-G1Fc.”, “(Dennler el” for “(Dennler et”, “activin A,” for “activin A.”
as §2, with “1, A-204” for “1. A204”, “μg)” for “pg)”
as §4

[3] = target: T3, Activin A (Homo sapiens, UniProt P08476); experiment: A204 cell-based pGL3(CAGA)12 reporter gene assay, signaling by activin A; conditions: for Inhibitory Potency of Homodimeric ActRIIB-Fc Constructs IC50 Activin A: Table 5, A204 cells, luciferase reporter
T3 sequence (P08476 311-426): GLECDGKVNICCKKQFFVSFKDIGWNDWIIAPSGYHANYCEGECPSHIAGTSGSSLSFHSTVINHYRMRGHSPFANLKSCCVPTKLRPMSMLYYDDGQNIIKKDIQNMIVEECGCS
Source text: as §1, §2, §3
as §1, with “A,” for “A, activin B, GDF8,”, “GDF11,” for “GDF11, BMP9,”, “and BMP9.” for “and BMP10, in comparison to ActRIIB-G1Fc.”, “(Dennler el” for “(Dennler et”, “activin A,” for “activin A.”
as §2, with “1, A-204” for “1. A204”, “μg)” for “pg)”
as §4

[4] = target: T1, BMP9; experiment: Biacore-based binding assay (surface plasmon resonance), BMP9; conditions: SPR 37° C., FIG. 9, compared to Fc fusion with unmodified ActRIIB extracellular domain
Protocol: (§5) To determine ligand binding profiles of variant ActRIIB-Fc homodimers, a Biacore™-based binding assay was used to compare ligand binding kinetics of certain variant ActRIIB-Fc polypeptides. ActRIIB-Fc polypeptides to be tested were independently captured onto the system using an anti-Fc antibody. Ligands were then injected and allowed to flow over the captured receptor protein. ActRIIB-G1Fc was used as the control polypeptide.
as §5, with “protein.” for “protein. ActRIIB-G1Fc was used as the control polypeptide.”
A Biacore™-based binding assay was used to compare the ligand binding kinetics of an ActRIIB-Fc:ActRIIB(L79E)-Fc heterodimer with those of unmodified ActRIIB-Fc homodimer. Fusion proteins were captured onto the system using an anti-Fc antibody. Ligands were then injected and allowed to flow over the captured receptor protein at 37° C. Results are summarized in the table below, in which ligand off-rates (kd) most indicative of effective ligand traps are denoted in bold.

[5] = target: T4, GDF11 (UniProt O95390 299-407); experiment: cell-based or functional assay
T4 construct: also called Growth and differentiation factor-11; BMP11
T4 sequence (looked up): T2 sequence (O95390 299-407)

| Inhibitory Potency of Homodimeric ActRIIB-Fc Constructs IC50 BMP9 [1] | Inhibitory Potency of Homodimeric ActRIIB-Fc Constructs IC50 GDF11 [2] | Inhibitory Potency of Homodimeric ActRIIB-Fc Constructs IC50 Activin A [3] | Substance | also measured |
| --- | --- | --- | --- | --- |
| 0.409 µg/mL | 0.099 µg/mL | 0.128 µg/mL | A24N: homodimeric ActRIIB-Fc fusion, A24N substitution in human ActRIIB extracellular domain | – |
| 0.721 µg/mL | 0.18 µg/mL | 0.132 µg/mL | E50K: homodimeric ActRIIB-Fc fusion, E50K substitution in human ActRIIB extracellular domain | – |
| ~3 µg/mL | 0.638 µg/mL | 0.756 µg/mL | E50P: homodimeric ActRIIB-Fc fusion, E50P substitution in human ActRIIB extracellular domain | – |
| 0.359 µg/mL | 0.071 µg/mL | 0.198 µg/mL | E52A: homodimeric ActRIIB-Fc fusion, E52A substitution in human ActRIIB extracellular domain | – |
| ~10 µg/mL | 0.296 µg/mL | 0.762 µg/mL | E52K: homodimeric ActRIIB-Fc fusion, E52K substitution in human ActRIIB extracellular domain | – |
| – | – | – | F82I: homodimeric ActRIIB-G1Fc fusion with F82I substitution; mature SEQ ID NO: 39 | reduction in affinity for BMP9 compared with reduction in affinity for GDF11 or activin A [4]: reduce ActRIIB binding affinity for BMP9 more than they reduce ActRIIB affinity for activin A or GDF11; reduction in affinity for BMP9 compared with reduction in affinity for GDF11 or activin A ([4]; listed as ActRIIB(F82I)-Fc): greater reduction in their affinity for BMP9 than for GDF11; inhibition of BMP9 compared to fusion polypeptide with unmodified ActRIIB extracellular domain (in words) ([1]; A204 reporter gene assay): less potent inhibition of BMP9; selectivity of antagonism (activin A and GDF11 over BMP9) compared to unmodified ActRIIB-Fc ([1]; A204 reporter gene assay): more selective antagonists of activin A and GDF11; inhibition of GDF11 compared to fusion polypeptide with unmodified ActRIIB extracellular domain (in words) ([2]; A204 reporter gene assay): essentially undiminished inhibition of activin A and GDF11; inhibition of activin A compared to fusion polypeptide with unmodified ActRIIB extracellular domain (in words) ([3]; A204 reporter gene assay): essentially undiminished inhibition of activin A and GDF11 |
| – | – | – | F82W (homodimeric ActRIIB-Fc construct) (Fc fusion) | IC50 (ng/ml), A204 CAGA12 luciferase reporter assay [5]: 276 ng/mL |
| ~40 µg/mL | 0.389 µg/mL | – | F82W/N83A: homodimeric ActRIIB-Fc fusion, F82W and N83A substitutions in human ActRIIB extracellular domain | – |
| – | 0.276 µg/mL | – | F82W: homodimeric ActRIIB-Fc fusion, F82W substitution in human ActRIIB extracellular domain | – |
| 5.5 µg/mL | 0.365 µg/mL | 0.396 µg/mL | K55D: homodimeric ActRIIB-Fc fusion, K55D substitution in human ActRIIB extracellular domain | – |
| 0.777 µg/mL | 0.318 µg/mL | 0.206 µg/mL | K55R: homodimeric ActRIIB-Fc fusion, K55R substitution in human ActRIIB extracellular domain | – |
| 0.165 µg/mL | 0.045 µg/mL | – | K74R: homodimeric ActRIIB-Fc fusion, K74R substitution in human ActRIIB extracellular domain | – |
| – | – | – | L79R (homodimeric ActRIIB-Fc construct) (Fc fusion) | IC50 (ng/ml), A204 CAGA12 luciferase reporter assay [5]: 234 ng/mL |
| – | 0.234 µg/mL | – | L79R: homodimeric ActRIIB-Fc fusion, L79R substitution in human ActRIIB extracellular domain | – |
| 1.21 µg/mL | 0.591 µg/mL | – | R40A: homodimeric ActRIIB-Fc fusion, R40A substitution in human ActRIIB extracellular domain | – |
| – | – | – | Y60K (homodimeric ActRIIB-Fc construct) (Fc fusion) | IC50 (ng/ml), A204 CAGA12 luciferase reporter assay [5]: 414 ng/mL |
| – | 0.414 µg/mL | – | Y60K: homodimeric ActRIIB-Fc fusion, Y60K substitution in human ActRIIB extracellular domain | – |
| – | – | – | Y60P (homodimeric ActRIIB-Fc construct) (Fc fusion) | IC50 (ng/ml), A204 CAGA12 luciferase reporter assay [5]: 544 ng/mL |
| – | 0.544 µg/mL | – | Y60P: homodimeric ActRIIB-Fc fusion, Y60P substitution in human ActRIIB extracellular domain | – |
